{
  "source": "the DeepSol protein solubility set",
  "test": "soluble on expression in E. coli; label from the status in PepcDB or PDB records",
  "data": [
    {"sequence": "MNGQAKIAEPRRLYQQIADQIRELIDVGEFLPGTRLPAERELAQKLGVSRPSLREALIALEIDNTVEIRMGSGVYVSTEALQTTHHTKSLGDSPSELMQARAALEGATIVLAANRMTDETIAALRQILNTMQKEIEAGRKPLDQDRLFHVTIAEQSGNSVLARLVANLFDERHSPISAQLRVKFEDRDTWTRALQEHEAILAALELKDPLLAQAAMHIHLEGSKRRWVDS", "values": [
      {"measurement": "soluble on expression in E. coli", "result": "soluble"}
    ]},
    {"sequence": "MAHHHHHHMNNSVTRKIEKQILEALKDKENDIDKEIRKYEILERKVYDENDEELEFIKNKRLEELKNKHKEKLTLLKKGHGTYKEVLSEKEFFEICKSSKNVCCHFYRNTTWRCQYMDKKLIDLSSKYWNINFIKINAEKSPFLCERLKIWCIPTVMLIQNGKTEHSIVGFDELGGDNFSEQTLVNVLRKWRLIETKENDD", "values": [
      {"measurement": "soluble on expression in E. coli", "result": "not soluble"}
    ]},
    {"sequence": "MPKHIIDEIESLSLATGFILKNGDFTEEKSLLVKPTMGGTWHWSPIKGLHSQDSIRKTRAYILQEIARMTIYPEAGVSPTLRRKKGIVIGVARAVSTELYHIVENDLIEEEMDTAKLAVGYDGETIVIKNDVDSKWKEELSKPLNLSETENKVIQRLLLISHGVIPLQGYSLVTTSHHYNDKSKRAFSAVERQFFSRCDQLSWWKEDEEALRDAMWHKAGHPVKISFKKEIACSITIKQSLANAGIGSVACRLPATEDVVWKAEAYRNLLKTLSPIFDDEVKWEALDEMLSYLNHFSAARPTEVVTVHNAPTHLMSLDTREKVVTWIAQWCSQNAEKVAICLGFHTALLENAGKFPGPSYSLMVLRTNVDSYILGTKLFSDYTVFKAKLRQLMDSVS", "values": [
      {"measurement": "soluble on expression in E. coli", "result": "soluble"}
    ]},
    {"sequence": "MKAVYPGSFDPITLGHVDIIKRALSIFDELVVLVTENPRKKCMFTLEERKKLIEEVLSDLDGVKVDVHHGLLVDYLKKHGIKVLVRGLRAVTDYEYELQMALANKKLYSDLETVFLIASEKFSFISSSLVKEVALYGGDVTEWVPPEVARALNEKLKEGKR", "values": [
      {"measurement": "soluble on expression in E. coli", "result": "not soluble"}
    ]},
    {"sequence": "MDGHHVDARPVEPVQGERDGRAGGSGMSLIKSVRHWLRRHPTVATEPATPPARGAHRGQVDHVILFDGTCSSLEAGHETNVGLIFKLLREERRSVQRTIYYEPGLQWGGWLRIGDLVQGKGLNRQIRRAYGYLASHYQPGDRIFLFGYSRGAYAARSLAGVIDRVGLLRREEATERNVRLAWRHYEQGSIRPHARAFSRRHCHARVEIEMVGIFDTVKALGLRLPLLWRLSEDRHAFHSHKLGRTVRHGFHALALDETRTVFEPVLWDYPYHGQIVEQAWFRGGHGDIGGQLAGGRHGSRLLSNIPLVWMLERATHCGLQLPEGWRARHPCDVTAPMTSMYAGWGKIFLSRQRRPTLRCPTEYIHPTALRPEPRRRKWRLRWGGAPEGEPTQGLEHHHHHH", "values": [
      {"measurement": "soluble on expression in E. coli", "result": "not soluble"}
    ]},
    {"sequence": "MGSDKIHHHHHHMSPRPKQLSLELGSPPPSTFDNFVVASNREAVQRLHDLPSAVAQERAIDRLFYLWGENGCGRTHLLHAVCEATPQTGINCRYLSPHHPLSDFLFDPSCQLYTVDDVELLDEARQIAVFSLYNEVRAHVRTALVVAGGMAPRAMPVREDLRTRLGWGLVYQVQPLSDEDKMSAVLQAARERGLQLSPEITHWLVTRHYRDMPSLMALLDALDTYSLERKRPVTLPLLREMFAEFRE", "values": [
      {"measurement": "soluble on expression in E. coli", "result": "not soluble"}
    ]},
    {"sequence": "MALPRITQKEMTEREQRELKTLLDRARIAHGRVLTNSETNSIKKDYIDKLMVEREAEAKKARQLKKKQAYKPDPEASFSWSANTSTRGRR", "values": [
      {"measurement": "soluble on expression in E. coli", "result": "soluble"}
    ]},
    {"sequence": "MSLRTTDDLPNALPPALESMTLLVAAVIVHDQATNRVVLLQRSENAKFAQGMWDLPVGKSEPGEPITETAVRELHEETGLTVKPEALMVAHIIHGSWGVEAPNGFLTVVFATHEWTGEPENREPRKHSQVRWVDADAIPEECVDTTASALHHYLSGGAQVSLDGWLPKEGHHHHHH", "values": [
      {"measurement": "soluble on expression in E. coli", "result": "soluble"}
    ]},
    {"sequence": "MPFLPPLTPPTELYLGIQLPSPISILVNYLPVSQTPIETLRNLVYSCDINTLAIDEFMTWPSLLQPGSPFRPYFEVLVERGSIPAVYLEGVRQASNFVTVAQGLSVMTTVALSDPFACFATGLFLTCTGNHLDFLPISEKFWEMTPTLEAGHAVAEMVMYHISQLHTENARRWERSWRFVHLPSCVGQCTFHHGCRVCFFYWYAREMAIFY", "values": [
      {"measurement": "soluble on expression in E. coli", "result": "soluble"}
    ]},
    {"sequence": "MGSDKIHHHHHHMIKVALLHFGFEDYTIELANSLSKYVDLTLINPKKLSDVCGDAFDPSIRVVSFKKPRIRDPRNLLSMNAMMRIIKDIQPDVLHVQETNDPWYDWTLLLNKMPPLVTTIHDVFRHPGDKVAVFGSEYTRRIAFYRSQQLIVHTHQLKKILIEQFNLPEGRVNVIPHGELGSLYQHRGDRSNQPRDPNTLLFFGRIWPYKGLKYLLEAMPLIAECVPEVKLIIAGRGENIKEYFPNGYDENRYEIINRLIPLEEVSNLFQRSTVTVLPYIEASQSGVAALSYGMGTLVVASDVGGLSEIVQHKKDGLLVPPRDVRALADAIICLLSDRDLQQKMQTAALARCQQDLNWSNIAAQTVEVYQKTMKPIHQ", "values": [
      {"measurement": "soluble on expression in E. coli", "result": "not soluble"}
    ]},
    {"sequence": "MAHHHHHHMDSGTKREFGRNVTNVDDFKGAKLTPSKIHHQKFEGSDKRHGVRLADEGKWCIHKRSRVEPVAAGPSRERSVEETKSTTTCCSLPLPSQETNLCSIRGDSNTCSSDDSSIERYFDESCEAIEAPTAPAPRPPSPTWNNALRTVSGTAAAVLQDLKNAASLQTDQSSSSEVLPSPPVIPLIL", "values": [
      {"measurement": "soluble on expression in E. coli", "result": "not soluble"}
    ]},
    {"sequence": "MAHHHHHHSLIDLHIHSNYSDGQGSVEEIARRAKERGLKAIAIVDHSIELPFGLTEKKARMREIEIENAASLYGIKIYSGIECSINAAGEIVLPDFDFDFIIASVHEFVYGQAYYERVIRCLESHDVDVLGHPFSPLFGFDGRLAEMDEKLLDVVEERGVAVELNSSHKSPQDEFLQLCRDRKIAYSIGSDAHSLSGVGEVGWSVEKAKRYMAGAKLFTPEG", "values": [
      {"measurement": "soluble on expression in E. coli", "result": "not soluble"}
    ]},
    {"sequence": "MSLTSKNQFYKPGMLVPVFSAAGLLKNGRYQFLLQQIETLSLLPTEQYAQLYEALVYRFVEFVQVLPIRLDEPLCSLMNEGLLRGVNSLNHYIQNHPEATPLERYALFSAGLLLEVAHAVVNQKIFITDEEGNFIKQWNPFSGPLIDDVETKHYKIMPLSSYYQRNIPSITPILVRQLLPDEGFLWLTSDMRVFSDWMQALRDDEGEGGGRFEHVLQLFKHKNIDGLFNTLPALPVNLQDSPATAHADAFLNWLKEALATNQIKVNTSDAGVHVIPEGVFLEKTGIFKQYIDLHVNVPVNLFTVYQQFGNLFGLTKLSGIDYRFEQLFSEYPDALKRKSKMGFAGLIGIRRASPTREGVLIADPNLIFTRGEIPSATSYLKLSSAQKSQNIPMTEGHHHHHH", "values": [
      {"measurement": "soluble on expression in E. coli", "result": "soluble"}
    ]},
    {"sequence": "MSLTIYVYVLDTLADWEIGYVNSELNSRRFFKKDANRVSLKTVSYSKEPIKTMGGMTIVPDCVIDDIVMSETSVLLLPGADTWNNLEHKAIIKKASELLALNATVAAICGATVALANHGLLDNRPHTSNGAGFLEMFSSSYKGQNSYINELSVWDNNLITASSAGALLWAKQIIAHLDVFESNTLESWYAYFNTGDPKHFYALMESLPDNNEGHHHHHH", "values": [
      {"measurement": "soluble on expression in E. coli", "result": "soluble"}
    ]},
    {"sequence": "GPGSMLATFFGRRAEPEFKVVCDPESIVFPVDFDAPDYPYEQAFEEADAYVRKLPTRGVVPVSDVLRLQFYSLFKQATEGDINEDVKQPSMLRDWEGYWKVYGWRKCRGMTRERARDLYTDLLDLQIRKHCSFVWGAPSGEDRWAAFYDGVRIIRNLPKGGYYLPDSLRAHFYALYKQALVGNLSDFQKTPAAFSEKYKWLRSRPSKAGFDQMRYDEWAALKGMSCEKAKRMYCKDIFKSAAMCGYVWAPPGTADHLKVIGDQTSAKTLKKRTDADEHAERIAGATHLTMEEAMDAVGVHLSMVERLTMHSFTKKEQTAAARTAEEAAGRKKREEKAEVKRRGVAGSHVDLNKGMAFARPKAEESTEATVTEKTEETEAKEDAERRLEAQGTDKDPQSVCNLCGSFAKDIASDAEAPEKVKESGAAAAAAKDCTAASTSPAPVPKLQASAKVAEASKILPSKSEPVLKKEPAVKGTSKGAKSSHQAKNGAKKGPAGKRTKAN", "values": [
      {"measurement": "soluble on expression in E. coli", "result": "soluble"}
    ]},
    {"sequence": "MKVGVVGLQGDVSEHIEATKMAIEKLELPGEVIWLKRPEQLKGVDAVIIPGGESTTISRLMQRTGLFEPIKKMVEDGLPVMGTCAGLIMLAKEVLGATPEQKFLEVLDVKVNRNAYGRQVDSFEAPVKLAFDDEPFIGVFIRAPRIVELLSEKVKPLAWLEDRVVGVEQENIIGLEFHPELTNDTRIHEYFLRKVI", "values": [
      {"measurement": "soluble on expression in E. coli", "result": "soluble"}
    ]},
    {"sequence": "MQTSAQKVIQDLTNRVQAEKEELEQLERERDLWKYNAQMNDKEALRGNERKKNIMKKGGPLCYFCNKNHVPSLCRTYPDGISRQKSLENQGKCIKCLKIGHQNGDNFCEKHHIVCRTCQQSHVKAVCPILYPKKDTPPKILRARRRSLIRAQKKKDFQEPENKHEQLTSTKAPCQENWSDF", "values": [
      {"measurement": "soluble on expression in E. coli", "result": "not soluble"}
    ]}
  ]
}
